Measurements as given in PMC7939390 (The Journal of Biological Chemistry, 2020).
No end group written: not given here. *: point of attachment. FITC = O=C1OC2(c3ccc(O)cc3Oc3cc(O)ccc32)c2ccc(NC(=S)*)cc21

Experiments:
PBP1b R141A/R397A = target: T1, PBP1b R141A/R397A (E. coli, UniProt P02919 1-844, R141A | R397A); experiment: cell-based or functional assay
T1 sequence (looked up): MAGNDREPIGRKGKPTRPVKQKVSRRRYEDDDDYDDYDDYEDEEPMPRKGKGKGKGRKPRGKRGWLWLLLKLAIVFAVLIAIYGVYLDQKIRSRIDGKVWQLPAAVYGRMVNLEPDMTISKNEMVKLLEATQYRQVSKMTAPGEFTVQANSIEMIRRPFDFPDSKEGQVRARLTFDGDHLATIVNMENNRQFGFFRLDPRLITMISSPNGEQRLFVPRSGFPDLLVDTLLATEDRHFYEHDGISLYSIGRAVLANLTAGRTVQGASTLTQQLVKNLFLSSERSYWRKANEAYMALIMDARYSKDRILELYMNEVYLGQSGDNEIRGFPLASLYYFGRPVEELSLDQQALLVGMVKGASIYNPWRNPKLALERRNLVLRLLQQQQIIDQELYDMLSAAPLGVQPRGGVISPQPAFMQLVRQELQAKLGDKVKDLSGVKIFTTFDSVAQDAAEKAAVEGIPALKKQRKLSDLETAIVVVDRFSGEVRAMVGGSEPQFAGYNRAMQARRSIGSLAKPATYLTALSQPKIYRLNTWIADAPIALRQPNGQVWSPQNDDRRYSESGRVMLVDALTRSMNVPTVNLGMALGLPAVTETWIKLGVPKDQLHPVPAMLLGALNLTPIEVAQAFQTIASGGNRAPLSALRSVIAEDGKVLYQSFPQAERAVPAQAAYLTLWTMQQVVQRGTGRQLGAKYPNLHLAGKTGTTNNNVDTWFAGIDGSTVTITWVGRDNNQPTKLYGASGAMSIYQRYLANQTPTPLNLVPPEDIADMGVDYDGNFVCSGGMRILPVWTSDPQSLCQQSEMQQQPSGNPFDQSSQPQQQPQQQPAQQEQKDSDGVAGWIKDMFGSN

[1] = target: T2, PBP1bγ (penicillin-binding protein 1b, gamma form) (E. coli, UniProt P02919-2 1-799); experiment: fluorescence polarisation; fluorescence anisotropy; FITC-Lys69–Gln93 probe at 100 nM, serial dilutions of the proteins in their specific buffer, 384-well plates, 30 min at 25 °C; conditions: both partners purified
T2 construct: also called 1b WT
T2 sequence (looked up): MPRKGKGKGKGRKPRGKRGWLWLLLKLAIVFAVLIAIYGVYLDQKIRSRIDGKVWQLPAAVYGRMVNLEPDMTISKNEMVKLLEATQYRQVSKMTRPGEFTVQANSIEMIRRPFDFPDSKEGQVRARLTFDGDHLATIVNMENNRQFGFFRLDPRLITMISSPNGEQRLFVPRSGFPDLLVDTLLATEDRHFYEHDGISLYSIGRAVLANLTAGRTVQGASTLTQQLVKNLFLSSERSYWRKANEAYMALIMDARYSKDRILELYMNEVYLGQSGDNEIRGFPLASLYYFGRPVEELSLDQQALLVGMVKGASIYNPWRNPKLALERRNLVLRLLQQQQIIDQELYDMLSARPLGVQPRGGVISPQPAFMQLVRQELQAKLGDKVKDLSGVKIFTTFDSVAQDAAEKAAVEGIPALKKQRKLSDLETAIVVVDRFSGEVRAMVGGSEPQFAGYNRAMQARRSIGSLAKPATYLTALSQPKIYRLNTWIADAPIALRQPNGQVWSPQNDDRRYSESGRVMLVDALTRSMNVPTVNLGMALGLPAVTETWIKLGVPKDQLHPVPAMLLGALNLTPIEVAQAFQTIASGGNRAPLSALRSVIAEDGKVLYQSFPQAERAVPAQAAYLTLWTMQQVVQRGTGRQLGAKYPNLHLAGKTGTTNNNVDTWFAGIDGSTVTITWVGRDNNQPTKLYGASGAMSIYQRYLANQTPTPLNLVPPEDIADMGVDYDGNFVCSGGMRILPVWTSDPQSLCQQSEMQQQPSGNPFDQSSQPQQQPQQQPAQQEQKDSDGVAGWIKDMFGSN

PBP1b (positions 58–804) = target: T3, PBP1b (positions 58–804) (E. coli, UniProt P02919 58-804); experiment: crystal structure; co-crystallization of PBP1b (Lys58–Ser804) with moenomycin A (1:1) and EFtsN peptide (3:1), hanging drop, 20 °C; 2.4 Å; conditions: both partners purified
T3 construct: Crystallized with moenomycin A (1:1) and the EFtsN peptide (3:1); also called PBP1b (Lys58–Ser804); source: purified (details in the supporting information)
T3 sequence (looked up): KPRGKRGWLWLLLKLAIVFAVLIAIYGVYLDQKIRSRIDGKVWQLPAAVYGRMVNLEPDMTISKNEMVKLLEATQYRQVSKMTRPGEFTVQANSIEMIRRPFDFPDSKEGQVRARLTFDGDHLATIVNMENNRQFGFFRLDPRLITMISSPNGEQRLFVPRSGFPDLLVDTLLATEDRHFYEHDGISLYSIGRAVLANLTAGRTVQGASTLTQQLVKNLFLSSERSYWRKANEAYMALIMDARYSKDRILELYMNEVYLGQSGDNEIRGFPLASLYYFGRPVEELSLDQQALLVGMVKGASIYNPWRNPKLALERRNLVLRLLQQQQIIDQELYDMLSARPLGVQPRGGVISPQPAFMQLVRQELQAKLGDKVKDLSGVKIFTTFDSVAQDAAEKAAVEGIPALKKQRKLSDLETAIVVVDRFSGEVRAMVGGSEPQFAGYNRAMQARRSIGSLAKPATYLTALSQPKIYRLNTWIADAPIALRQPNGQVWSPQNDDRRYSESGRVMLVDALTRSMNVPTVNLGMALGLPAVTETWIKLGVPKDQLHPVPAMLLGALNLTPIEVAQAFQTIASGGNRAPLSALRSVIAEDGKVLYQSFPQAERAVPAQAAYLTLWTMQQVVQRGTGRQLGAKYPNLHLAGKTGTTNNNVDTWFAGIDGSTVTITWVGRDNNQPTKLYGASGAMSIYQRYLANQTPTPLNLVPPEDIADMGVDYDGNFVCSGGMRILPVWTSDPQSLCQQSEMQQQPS

PBP1b^R141A/R397A = assay type: biochemical, Escherichia coli; conditions: versus PBP1b^WT; GTase, dansyl-lipid II; mean ± s.d. of three experiments
PBP1b = target: T4, PBP1b (Escherichia coli, UniProt P02919); conditions: cited from earlier work
T4 sequence (P02919 1-799 isoform P02919-2): T2 sequence (looked up)
Excerpt: Bacteria generally have at least one bifunctional (GTase/TPase) PBP of class A and one monofunctional (TPase only) PBP of class B ([2], [13]). E. coli contains three aPBPs: PBP1a, 1b, and 1c, and two bPBPs: PBP2 and PBP3, the latter being involved in cell elongation and division, respectively ([14]). PBP1a and PBP1b are major PG synthases and at least one of them is required for cell viability ([15]).

[2] = tested on: E. coli EJ801 (ΔponB-ponA^ts); experiment: microscopy of EJ801 cells, cell morphology and length; assay type: cell-based, Escherichia coli; set-up: cell length L: unit not given here; conditions: EJ801 after 1 h at 42 °C, n = 250, phase contrast, ImageJ/ObjectJ
Protocol: Samples were taken from the complementation cultures (42 °C) at different time (1-h intervals), and the cells were fixed as described ([63]). Photographs were taken with a cooled AxioCam MRm (Zeiss) mounted on a Zeiss Axio Imager. Z1 microscope, and the images were acquired in phase-contrast mode using the AxioVision Rel. 4.5 (Zeiss) software. The cell morphologies analysis were determined using ImageJ software (RRID:SCR_003070) running under plugin ObjectJ (RRID:SCR_019190).

B1: HisFtsN (full-length FtsN) (natural protein, E. coli, UniProt P29131 1-319, looked up)
chain: MAQRDYVRRSQPAPSRRKKSTSRKKQRNLPAVSPAMVAIAAAVLVTFIGGLYFITHHKKEESETLQSQKVTGNGLPPKPEERWRYIKELESRQPGVRAPTEPSAGGEVKTPEQLTPEQRQLLEQMQADMRQQPTQLVEVPWNEQTPEQRQQTLQRQRQAQQLAEQQRLAQQSRTTEQSWQQQTRTSQAAPVQAQPRQSKPASSQQPYQDLLQTPAHTTAQSKPQQAAPVARAADAPKPTAEKKDERRWMVQCGSFRGAEQAETVRAQLAFEGFDSKITTNNGWNRVVIGPVKGKENADSTLNRLKMAGHTNCIRLAAGG
For B1, which “fold decrease in activation of the GTase activity of PBP1b R141A/R397A by FtsN against the WT protein, continuous fluorescence assay” value (PBP1b R141A/R397A) is on record?
Its value is 2 fold.

B2: FITC-labeled peptide (FITC-Lys69–Gln93) of FtsN (peptide)
peptide: {FITC}-KVTGNGLPPKPEERWRYIKELESRQ
notes: also called F-EFtsN; fluorescent EFtsN peptide; source: synthetic peptide, bought: Synpeptide (Shanghai, China)
With B2 as the molecule, how does the Kd [1] read?
The Kd was 8.1 ± 1.7 µM.

B3: EFtsN peptide (Leu75–Gln93), unlabeled (peptide)
peptide: LPPKPEERWRYIKELESRQ
notes: FtsN, E. coli, residues Leu75–Gln93 (essential region around helix H2); also called essential region of FtsN; synthetic peptide Leu75–Gln93; source: synthetic peptide, bought: Synpeptide (Shanghai, China)
Does B3 bind (PBP1b (positions 58–804))?
Result: binds

B4: LpoB: outer-membrane lipoprotein LpoB (protein, UniProt P0AB38 20-213, looked up)
Penicillin-binding protein …: CVGQREPAPVEEVKPAPEQPAEPQQPVPTVPSVPTIPQQPGPIEHEDQTAPPAPHIRHYDWNGAMQPMVSKMLGADGVTAGSVLLVDSVNNRTNGSLNAAEATETLRNALANNGKFTLVSAQQLSMAKQQLGLSPQDSLGTRSKAIGIARNVGAHYVLYSSASGNVNAPTLQMQLMLVQTGEIIWSGKGAVSQQ
For B4, which “activation of PBP1b^R141A/R397A by LpoB” value (PBP1b^R141A/R397A) is on record?
The value was “remained unchanged”.

And the “catalytic activities of PBP1b (literature)” value (PBP1b)?
Its value is “stimulates both of its catalytic activities”.

B5: PBP1b^WT: PBP1b wild-type (protein)
chain: T2 sequence (looked up)
For B5, which “cell length L” value [2] is on record?
Its value is 2.17 ± 0.46.
